Measurements from the nanobody polyreactivity screen of Harvey et al. (2022).

assay: yeast display, Sf9 membrane polyspecificity reagent, FACS + sequencing; frameworks hold sequencing errors
Method in brief: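 After 36–48 hours of galactose induction, yeast (Saccharomyces cerevisiae BJ5465) displaying a synthetic nanobody library were stained at 4 °C for 1 hour with 10% biotinylated, detergent-solubilized Sf9 membrane reagent. Streptavidin microbeads enriched the stained cells before FACS sorting into low and high (top ~1%) gates on anti-HA and streptavidin fluorescence. Each clone's polyreactivity label reflects its gate of origin.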

| Sequence | polyreactivity (PSR sort gate) |
| --- | --- |
| QVQLVESGGGLVQAGGSLRLSCAASGRTFPYYTMGWYRQAPGKERELVAAITSGGSTYYADSVKGRFTISRDNAKNTVYLQMNSLKPEDTAVYYCNKDAYYWGQGTQVTVSS | low polyreactivity |
| QVQLVESGGGLVQAGGSLRLSCAASGRTFPYYVMGWYRQAPGKERELVAAISTTGGSTYYADSVKGRFTISRDNAKNTVYLQMNSLKPEDTAVYYCAARRLIRDNLGYDYWGQGTQVTVSS | high polyreactivity |
| QVQLVESGGGLVQAGGSLRLSCAASGRTFQEYAMGWYRQAPGKERELVADISDGGSTNYADSVKGRFTISRDNAKNTVYLQMYSLKPEDTAVYYCAADQYHGVGINFRSDYDYWGQGTQVTVSS | low polyreactivity |
| QVQLVESGGGLVQAGGSLRLSCAASGRTFQFYAMGWYRQAPGKERELVAAISSGGSTNYADSVKGRFTISRDNAKNTVYLEMNSLKPEDSAVYYCAKRPWYHADWWDDHWGQGTQVTVSS | high polyreactivity |
| QVQLVESGGGLVQAGGSLRLSCAASGRTFQFYVMGWYRQAPGKERELLASIRSGGSTNYADSVKGRFTISRDNAKNTVYLQMNSLKPEDTAVYYCNADAYGTPEFTSYAVRYDYWGQGTQVTVSS | low polyreactivity |
| QVQLVESGGGLVQAGGSLRLSCAASGRTFQGKAMGWYRQAPGKERELVAAISSSGGRTYYADSVKGRFTISRDNAKNTVYLQMNSLKPVDTSVYYCAARNYFWGQGTQVTVSS | low polyreactivity |
| QVQLVESGGGLVQAGGSLRLSCAASGRTFQGNAMGWYRQAPGKERELVAVIDSGTSTDYADSVKGRFTISRDNAKNTVYLQMNSLKPEDTAVYYCAADGALGYNLRYDYWGQGTQVTVSS | low polyreactivity |
| QVQLVESGGGLVQAGGSLRLSCAASGRTFQGYAMGWYRQAPGKERELVAAISYRGGSTYYADSVKGRFTISRDHAKPTVFLPMNSLKPEDTAVYYCAARWNRGRYDYWGQGTQVTVSS | high polyreactivity |
| QVQLVESGGGLVQAGGSLRLSCAASGRTFQLYAMGWYRQAPGKERDLVAAISARGGSTYYADSVKGRFTISRDNAKNTVYLQMNSLKPEDTAVYYCNADYNVVLSRVIYARGYWGQGTQVTVSS | high polyreactivity |
| QVQLVESGGGLVQAGGSLRLSCAASGRTFQQNAMGWYRQAPGKERELVAAINSRGGRTYYADSVKGRFTISRDTAKNTVYLQMNSLKPEDTAVYYCAARYYWGQGTQVTVSS | high polyreactivity |
| QVQLVESGGGLVQAGGSLRLSCAASGRTFQSNAMGWYRQAPGKERELVAAITNGGNTNYADSVKGRFTISRDNAKNTVYLQMNSLKPEDTAVYYCAADRLYVRYGYWGQGTQVTVSS | low polyreactivity |
| QVQLVESGGGLVQAGGSLRLSCAASGRTFQSNGMGWYRQAPGKERELVAAITWSSGTTYYADSVKGRFTISRDNAKNTVYLQMNSLKPEDTAVYYCAADWGHWNSLFYSGFGYWGQGTQVTVSS | low polyreactivity |
| QVQLVESGGGLVQAGGSLRLSCAASGRTFQYYAMGWYRQAPGKEREFVAAISRSGGSTYYADSVKGRFTISRDNAKNTVYLQMNSLKPEDTAVYYCAADAYRSSYDYWGQGTQVTVSS | low polyreactivity |
| QVQLVESGGGLVQAGGSLRLSCAASGRTFQYYAMGWYRQAPGKERELVAAISSRGGSTYYADSVKGRFTISRDNAKNTVYLQMNSLKPEDTAVYYCAAYVLPRQRVRSDYWGQGTQVTVSS | high polyreactivity |
| QVQLVESGGGLVQAGGSLRLSCAASGRTFQYYTMGWYRQAPGKEREFVAALRDSGGSTYYADSVKGRFTISRDNAKNTVYLQMNSLKPEDTAVYYCAAYRPRKYDYWGQGTQVTVSS | high polyreactivity |
| QVQLVESGGGLVQAGGSLRLSCAASGRTFRANAMGWYRQAPGKERELFAAISKRGGNTYYADSVKGRFTISRDNAKNTVYLQMNSLKPEDTAVYYCADDFICRDYDYWGQGTQVTVSS | high polyreactivity |
